Drawing on publication PMC4707517, this text covers Kd and IC50 for 13 substances.

Data set [1] addresses H1FL (H1 11-193 in Table 1, i.e. residues 1-193) S19C (mouse) (UniProt P10922). In words: fluorescence (de)quenching. The settings on record: 150 mM KCl (20 mM KCl for four-way junction and 4WJDNA), room temperature pre-incubation for competition, buffer and pH not given (HI-FI assay, ref 23).
Data set [2] addresses H1 1-121 (delta72) S19C (mouse) (UniProt P10922). Kind of data set: fluorescence (de)quenching. Conditions: 150 mM KCl (20 mM KCl for four-way junction and 4WJDNA); room temperature pre-incubation for competition; buffer and pH not given (HI-FI assay, ref 23).
Data set [3] concerns the target H1FL (H1 11-193 in Table 1, i.e. residues 1-193) S19C (mouse) (UniProt P10922). In words: FRET competition. Conditions: 150 mM KCl (20 mM KCl for four-way junction and 4WJDNA), room temperature pre-incubation for competition, buffer and pH not given (HI-FI assay, ref 23).
The target in data set [4] is H1 1-121 (delta72) S19C (mouse) (UniProt P10922). In words: FRET competition. Conditions: 150 mM KCl (20 mM KCl for four-way junction and 4WJDNA); room temperature pre-incubation for competition; buffer and pH not given (HI-FI assay, ref 23).
The target of data set [5] is H1 1-96 (delta97) S19C (mouse) (UniProt P10922). Kind of data set: FRET competition. The settings on record: 150 mM KCl (20 mM KCl for four-way junction and 4WJDNA); room temperature pre-incubation for competition; buffer and pH not given (HI-FI assay, ref 23).
Data set [6] has as its target H1FL (H1 11-193 in Table 1, i.e. residues 1-193) S19C (mouse) (UniProt P10922). Kind of data set: FRET. The settings on record: internal amino-C6-dT; 150 mM KCl (20 mM KCl for four-way junction and 4WJDNA); room temperature pre-incubation for competition; buffer and pH not given (HI-FI assay, ref 23).
Data set [7] has as its target H1 1-121 (delta72) S19C (mouse) (UniProt P10922). Kind of data set: FRET. The settings on record: internal amino-C6-dT; 150 mM KCl (20 mM KCl for four-way junction and 4WJDNA); room temperature pre-incubation for competition; buffer and pH not given (HI-FI assay, ref 23).
Data set [8] deals with H1 1-96 (delta97) S19C (mouse) (UniProt P10922). Kind of data set: FRET. Conditions: internal amino-C6-dT; 150 mM KCl (20 mM KCl for four-way junction and 4WJDNA); room temperature pre-incubation for competition; buffer and pH not given (HI-FI assay, ref 23).
[9] abbreviates: histone variant H2A.Z, mouse histones.

In turn, “ATCTAATACTAGGACCCTATACGCGGCCGCATCGGAGAATCCCGGTGCCGAGGCCGCTCAATTGGTCGTAGACAGCTCTAGCACCGCTTAAACGCACGTACGCGCTGTCCCCCGCGTTTTAACCGCCAAGGGGATTACTCCCTAGTCTCCAGGCACGTGTCAGATATATACATCGATTGCATGTGGATCCGAATTCATATTAATGAT (double strand) [S30/30-H2A.Z nucleosome]” showed a Kd in data set [1] (setting [9]) of 0.051 nM.

Regarding LE-Tri trinucleosome, the figures for the Kd in data set [1] (stoichiometry 3 H1 per trimer) and in data set [2] were 0.046 nM and 0.047 nM, respectively.

“CGAGCCAGGCCTGAGAATCCGGTGCCGAGGCCGCTCAATTGGTCGTAGACAGCTCTAGCACCGCTTAAACGCACGTACGCGCTGTCCCCCGCGTTTTAACCGCCAAGGGGATTACTCCCTAGTCTCCAGGCACGTGTCAGATATATACATCCAGGCCTTGTGTCG (double strand) [S7/11 nucleosome]”: the Kd stood at 1.73 nM in data set [3], 3.26 nM in data set [4] and 73.6 nM in data set [5].

In the case of “TCGGGATACGCGGCCGCCCTGGAGAATCCCGGTGCCGAGGCCGCTCAATTGGTCGTAGACAGCTCTAGCACCGCTTAAACGCACGTACGCGCTGTCCCCCGCGTTTTAACCGCCAAGGGGATTACTCCCTAGTCTCCAGGCACGTGTCAGATATATACATCCTGTGCATGTATTGAC (double strand) [S17/13 nucleosome]”, the values for the Kd in data set [3], in data set [4] and in data set [5] were 0.23 nM, 0.947 nM and 26.5 nM, respectively.

Take “ATCTAATACTAGGACCCTATACGCGGCCGCATCGGAGAATCCCGGTGCCGAGGCCGCTCAATTGGTCGTAGACAGCTCTAGCACCGCTTAAACGCACGTACGCGCTGTCCCCCGCGTTTTAACCGCCAAGGGGATTACTCCCTAGTCTCCAGGCACGTGTCAGATATATACATCGATTGCATGTGGATCCGAATTCATATTAATGAT (double strand) [S30/30 nucleosome]”: the Kd in data set [3] worked out at 0.0177 nM; in data set [4], 1.85 nM; in data set [5], 124 nM; in data set [1], 0.039 nM. For the same substance, the IC50 in data set [3] (competitor of S31/30 (10 nM), 1 nM H1) was found to be 3.7 nM.

On to NLE-Tri-H2A.Z trinucleosome, for which the Kd in data set [1] (setting [9]) came to 0.023 nM.

On to “CGCATCGGAGAATCCCGGTGCCGAGGCCGCTCAATTGGTCGTAGACAGCTCTAGCACCGCTTAAACGCACGTACGCGCTGTCCCCCGCGTTTTAACCGCCAAGGGGATTACTCCCTAGTCTCCAGGCACGTGTCAGATATATACATCGATTGCATGTGGATCCGAATTCATATTAATGAT (double strand) [A3/30 nucleosome]”, for which the values for the Kd in data set [6], in data set [7] and in data set [8] were 0.112 nM, 10.4 nM and 248 nM, respectively.

As for “AGGCCTGAGAATCCGGTGCCGAGGCCGCTCAATTGGTCGTAGACAGCTCTAGCACCGCTTAAACGCACGTACGCGCTGTCCCCCGCGTTTTAACCGCCAAGGGGATTACTCCCTAGTCTCCAGGCACGTGTCAGATATATACATCCAGGCCTTGTGTC (double strand) [A1/10 nucleosome]”, the values for the Kd in data set [4] and in data set [5] were 43.8 nM and 140 nM, respectively.

As for “ATCCCTATACGCGGCCGCCCTGGAGAATCCCGGTGCCGAGGCCGCTCAATTGGTCGTAGACAGCTCTAGCACCGCTTAAACGCACGTACGCGCTGTCCCCCGCGTTTTAACCGCCAAGGGGATTACTCCCTAGTCTCCAGGCACGTGTCAGATATATACATCCGAT (double strand) [A18/1 nucleosome]”, the equilibrium dissociation constant (Kd) in data set [3] worked out at 0.135 nM; in data set [4], 8.08 nM; in data set [5], 208 nM.

NLE-Tri trinucleosome: the Kd in data set [1] (stoichiometry 1 H1 per trimer) turned out to be 0.042 nM; in data set [2] it was 0.0638 nM.

On to 4WJDNA linear 30 bp, for which, in data set [1], the Kd stood at 3.75 nM.

As for 4WJ15 four-way junction, in data set [1], the Kd worked out at 0.035 nM.

Take “GATCTAATACTAGGACCCTATACGCGGCCGCATCGGAGAATCCCGGTGCCGAGGCCGCTCAATTGGTCGTAGACAGCTCTAGCACCGCTTAAACGCACGTACGCGCTGTCCCCCGCGTTTTAACCGCCAAGGGGATTACTCCCTAGTCTCCAGGCACGTGTCAGATATATACATCGATTGCATGTGGATCCGAATTCATATTAATGAT (double strand) [S31/30 nucleosome]”: the Kd in data set [6] is 0.0484 nM; in data set [7] it was 0.983 nM; in data set [8] it was 86.3 nM.
